Source: paper PMC10353453 (Molecular cell, 2022)
Where a chain is given by its changes, count along the chain named. Numbers in names are those of the source.

B1: human NADK2 (aa 61–442 with an N terminus His-tag) (enzyme, UniProt Q4G0N4 61-442, looked up)
chain: RADGGFRPSRVVVVAKTTRYEFEQQRYRYAELSEEDLKQLLALKGSSYSGLLERHHIHTKNVEHIIDSLRNEGIEVRLVKRREYDEETVRWADAVIAAGGDGTMLLAASKVLDRLKPVIGVNTDPERSEGHLCLPVRYTHSFPEALQKFYRGEFRWLWRQRIRLYLEGTGINPVPVDLHEQQLSLNQHNRALNIERAHDERSEASGPQLLPVRALNEVFIGESLSSRASYYEISVDDGPWEKQKSSGLNLCTGTGSKAWSFNINRVATQAVEDVLNIAKRQGNLSLPLNRELVEKVTNEYNESLLYSPEEPKILFSIREPIANRVFSSSRQRCFSSKVCVRSRCWDACMVVDGGTSFEFNDGAIASMMINKEDELRTVLLEQ
B2: His-NADK2^Δ231–266 (aa 61–442) (enzyme, human, UniProt Q4G0N4 61-442, looked up)
chain: RADGGFRPSRVVVVAKTTRYEFEQQRYRYAELSEEDLKQLLALKGSSYSGLLERHHIHTKNVEHIIDSLRNEGIEVRLVKRREYDEETVRWADAVIAAGGDGTMLLAASKVLDRLKPVIGVNTDPERSEGHLCLPVRYTHSFPEALQKFYRGEFRWLWRQRIRLYLEGTGPQLLPVRALNEVFIGESLSSRASYYEISVDDGPWEKQKSSGLNLCTGTGSKAWSFNINRVATQAVEDVLNIAKRQGNLSLPLNRELVEKVTNEYNESLLYSPEEPKILFSIREPIANRVFSSSRQRCFSSKVCVRSRCWDACMVVDGGTSFEFNDGAIASMMINKEDELRTVLLEQ
B3: His-NADK2^Δ78–114 (aa 61–442) (enzyme, human, UniProt Q4G0N4 61-442, looked up)
chain: RADGGFRPSRVVVVAKTHHIHTKNVEHIIDSLRNEGIEVRLVKRREYDEETVRWADAVIAAGGDGTMLLAASKVLDRLKPVIGVNTDPERSEGHLCLPVRYTHSFPEALQKFYRGEFRWLWRQRIRLYLEGTGINPVPVDLHEQQLSLNQHNRALNIERAHDERSEASGPQLLPVRALNEVFIGESLSSRASYYEISVDDGPWEKQKSSGLNLCTGTGSKAWSFNINRVATQAVEDVLNIAKRQGNLSLPLNRELVEKVTNEYNESLLYSPEEPKILFSIREPIANRVFSSSRQRCFSSKVCVRSRCWDACMVVDGGTSFEFNDGAIASMMINKEDELRTVLLEQ
B4: His-NADK2^V334R (enzyme, human, UniProt Q4G0N4 61-442, looked up)
chain: B1 chain with V274R
B5: His-NADK2^R378Q (enzyme, human, UniProt Q4G0N4 61-442, looked up)
chain: B1 chain with R318Q
B6: His-NADK2^K304Q (enzyme, human, UniProt Q4G0N4 61-442, looked up)
chain: B1 chain with K244Q
B7: His-NADK2^S188A (enzyme, human, UniProt Q4G0N4 61-442, looked up)
chain: B1 chain with S128A
B8: His-NADK2^K76Q (enzyme, human, UniProt Q4G0N4 61-442, looked up)
chain: B1 chain with K16Q
B9: NADK2 expressed in HEK293E cells (full-length human NADK2 cDNA with a C-terminal FLAG-tag) (enzyme, UniProt Q4G0N4 63-442, looked up)
chain: DGGFRPSRVVVVAKTTRYEFEQQRYRYAELSEEDLKQLLALKGSSYSGLLERHHIHTKNVEHIIDSLRNEGIEVRLVKRREYDEETVRWADAVIAAGGDGTMLLAASKVLDRLKPVIGVNTDPERSEGHLCLPVRYTHSFPEALQKFYRGEFRWLWRQRIRLYLEGTGINPVPVDLHEQQLSLNQHNRALNIERAHDERSEASGPQLLPVRALNEVFIGESLSSRASYYEISVDDGPWEKQKSSGLNLCTGTGSKAWSFNINRVATQAVEDVLNIAKRQGNLSLPLNRELVEKVTNEYNESLLYSPEEPKILFSIREPIANRVFSSSRQRCFSSKVCVRSRCWDACMVVDGGTSFEFNDGAIASMMINKEDELRTVLLEQ

Target: the molecule itself
Assay: SAXS

Stoichiometry N, 2:
B1

Target: the molecule itself
Assay: mass photometry

Stoichiometry N, 2:
B2
B3
B4
B5
B6
B7
B8

Target: the molecule itself
Assay: cross-linking

Stoichiometry N, 2:
B9
